Data taken from paper PMC2172333 (The Journal of Cell Biology, 2004).

Key:
Experiment in all cases: pull-down
[1] = molecular target: T1, NH2-terminal domain of Net1 (Net1 1-600) (yeast, UniProt P47035 1-600)
T1 sequence: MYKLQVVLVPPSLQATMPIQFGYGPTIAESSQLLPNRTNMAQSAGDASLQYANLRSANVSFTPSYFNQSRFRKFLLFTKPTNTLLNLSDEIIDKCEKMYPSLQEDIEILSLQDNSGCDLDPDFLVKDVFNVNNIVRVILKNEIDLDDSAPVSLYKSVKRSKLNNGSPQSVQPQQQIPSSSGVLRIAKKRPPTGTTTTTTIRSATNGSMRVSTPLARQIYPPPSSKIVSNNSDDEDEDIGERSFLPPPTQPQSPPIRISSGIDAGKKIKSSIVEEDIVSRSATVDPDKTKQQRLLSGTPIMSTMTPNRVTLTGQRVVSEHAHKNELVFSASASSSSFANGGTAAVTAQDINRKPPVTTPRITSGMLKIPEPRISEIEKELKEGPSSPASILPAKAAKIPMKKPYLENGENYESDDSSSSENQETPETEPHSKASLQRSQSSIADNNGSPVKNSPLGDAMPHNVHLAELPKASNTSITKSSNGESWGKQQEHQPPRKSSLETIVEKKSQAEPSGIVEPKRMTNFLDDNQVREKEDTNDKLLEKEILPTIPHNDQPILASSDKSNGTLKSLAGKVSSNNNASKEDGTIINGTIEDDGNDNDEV

MBP-Bub2 = molecular target: T2, MBP-Bub2 (yeast, UniProt P26448 1-306)
T2 sequence: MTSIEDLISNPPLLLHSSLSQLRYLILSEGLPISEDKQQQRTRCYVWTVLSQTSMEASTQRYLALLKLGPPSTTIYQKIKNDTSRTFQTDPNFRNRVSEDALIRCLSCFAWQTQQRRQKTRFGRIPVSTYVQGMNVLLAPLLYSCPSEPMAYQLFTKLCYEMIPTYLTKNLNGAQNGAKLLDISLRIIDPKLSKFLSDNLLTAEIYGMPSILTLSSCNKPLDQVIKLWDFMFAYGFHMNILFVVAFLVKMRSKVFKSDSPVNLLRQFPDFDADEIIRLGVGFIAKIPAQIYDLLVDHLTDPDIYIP

MBP-Bfa1 = molecular target: T3, MBP-Bfa1 (yeast, UniProt P47113 1-574)
T3 sequence: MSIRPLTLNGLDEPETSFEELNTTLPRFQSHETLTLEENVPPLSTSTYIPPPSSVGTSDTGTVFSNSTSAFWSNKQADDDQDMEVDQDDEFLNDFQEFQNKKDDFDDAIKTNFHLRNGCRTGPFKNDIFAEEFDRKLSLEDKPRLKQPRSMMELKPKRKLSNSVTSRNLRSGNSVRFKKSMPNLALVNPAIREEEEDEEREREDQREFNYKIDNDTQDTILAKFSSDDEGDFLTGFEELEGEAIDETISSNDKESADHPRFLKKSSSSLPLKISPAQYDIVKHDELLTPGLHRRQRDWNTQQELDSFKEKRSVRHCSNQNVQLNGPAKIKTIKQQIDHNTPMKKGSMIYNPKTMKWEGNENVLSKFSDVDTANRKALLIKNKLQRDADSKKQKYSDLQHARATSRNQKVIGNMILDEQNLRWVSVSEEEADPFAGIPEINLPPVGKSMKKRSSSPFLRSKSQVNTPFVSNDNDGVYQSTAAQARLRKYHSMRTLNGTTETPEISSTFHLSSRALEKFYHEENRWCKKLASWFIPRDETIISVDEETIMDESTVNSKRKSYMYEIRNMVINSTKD

B1: MBP-Cdc14 (natural protein)
chain: MRRSVYLDNTIEFLRGRVYLGAYDYTPEDTDELVFFTVEDAIFYNSFHLDFGPMNIGHLYRFAVIFHEILNDPENANKAVVFYSSASTRQRANAACMLCCYMILVQAWTPHQVLQPLAQVDPPFMPFRDAGYSNADFEITIQDVVYGVWRAKEKGLIDLHSFNLESYEKYEHVEFGDFNVLTPDFIAFASPQEDHPKGYLATKSSHLNQPFKSVLNFFANNNVQLVVRLNSHLYNKKHFEDIGIQHLDLIFEDGTCPDLSIVKNFVGAAETIIKRGGKIAVHCKAGLGRTGCLIGAHLIYTYGFTANECIGFLRFIRPGMVVGPQQHWLYLHQNDFREWKYTTRISLKPSEAIGGLYPLISLEEYRLQKKKLKDDKRVAQNNIEGELRDLTMTPPSNGHGALSARNSSQPSTANNGSNSFKSSAVPQTSPGQPRKGQNGSNTIEDINNNRNPTSHANRKVVIESNNSDDESMQDTNGTSNHYPKVSRKKNDISSASSSRMEDNEPSATNINNAADDTILRQLLPKNRRVTSGRRTTSAAGGIRKISGSIKK
- binding result [1]: binds

B2: His6-Tem1 (natural protein)
chain: MATPSTGANNSIPAVRNQVEVQVGLVGDAQVGKTSLMVKYVQNIYDKEYTQTLGVNFLKRKVSIRSTDIIFSIMDLGGQREFINMLPIATVGSSVIIFLFDLTRPETLSSIKEWYRQAYGLNDSAIPILVGTKYDLLIDLDPEYQEQISRTSMKYAQVMNAPLIFCSTAKSINIQKIFKIALAKIFNLTLTIPEINEIGDPLLIYKHLGGQQHRHHNKSQDRKSHNIRKPSSSPSSKAPSPGVNT
- binding result (MBP-Bub2): binds
- binding result (MBP-Bfa1): binds

B3: GST-Bub2 (natural protein)
chain: T2 sequence
- binding result (MBP-Bfa1): binds
